The record followed here is PMC9449591, “Therapeutic application of PPE2 protein of Mycobacterium tuberculosis in inhibiting tissue inflammation”.

For the data set, the target named is T1, rPPE2 (Mycobacterium tuberculosis, UniProt P9WI47 1-556).
T1 sequence: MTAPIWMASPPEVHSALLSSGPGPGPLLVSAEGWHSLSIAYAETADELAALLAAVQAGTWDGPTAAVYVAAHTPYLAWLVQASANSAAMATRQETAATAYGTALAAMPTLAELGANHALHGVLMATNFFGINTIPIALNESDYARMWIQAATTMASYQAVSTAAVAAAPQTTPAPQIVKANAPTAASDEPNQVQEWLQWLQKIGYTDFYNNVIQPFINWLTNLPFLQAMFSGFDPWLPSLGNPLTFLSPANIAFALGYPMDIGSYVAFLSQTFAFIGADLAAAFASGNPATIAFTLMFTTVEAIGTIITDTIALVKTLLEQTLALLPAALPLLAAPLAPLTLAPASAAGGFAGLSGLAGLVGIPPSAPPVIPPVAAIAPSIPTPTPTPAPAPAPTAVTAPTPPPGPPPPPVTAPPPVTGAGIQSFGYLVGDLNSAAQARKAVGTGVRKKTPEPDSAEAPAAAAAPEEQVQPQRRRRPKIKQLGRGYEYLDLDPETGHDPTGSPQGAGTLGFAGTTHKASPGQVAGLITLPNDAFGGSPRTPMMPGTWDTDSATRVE
As to the kind of experiment: EMSA; 20 mM HEPES, 0.5 mM DTT, 0.5 mM EDTA, 5% glycerol; […]; 30 min at room temperature; […]. The note with it: protein: recombinant; tags: His (pRSET-A vector, TALON purified); label: 32P 5' end label (T4 PNK).

B1: scf core promoter 60-bp EMSA oligonucleotide (dsDNA)
DNA 1: CGCGTGCGGGCGGGAGGGAGCTGTATAAAAAGCGCTGGCGGCGCAGCAGCCGGGGCTTCATTTGCG
DNA 2: CGCAAATGAAGCCCCGGCTGCTGCGCCGCCAGCGCTTTTTATACAGCTCCCTCCCGCCCGCACGCG
Take B1: the binding result was “binds”.
